In assay [1] the target is T1, Tim-4 on CHO or HEK293 transfectants (Tim-4-pDisplay construct, N-terminal HA tag, Tim-4 signal sequence … (mouse, UniProt Q6U7R4 30-343)).
T1 construct: also called Tim-4 transfectants; CHO-Tim-4; not shown: N-terminal HA tag of the pDisplay vector
T1 sequence: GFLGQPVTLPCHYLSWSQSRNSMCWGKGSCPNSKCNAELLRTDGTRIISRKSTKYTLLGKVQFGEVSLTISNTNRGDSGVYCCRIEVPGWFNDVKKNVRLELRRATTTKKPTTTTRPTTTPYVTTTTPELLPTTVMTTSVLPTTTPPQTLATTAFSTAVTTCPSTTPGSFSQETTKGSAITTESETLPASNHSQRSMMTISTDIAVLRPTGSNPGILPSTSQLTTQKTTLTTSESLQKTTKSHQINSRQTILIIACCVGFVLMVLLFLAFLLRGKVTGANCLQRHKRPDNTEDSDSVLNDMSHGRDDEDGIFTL
Put plainly: flow cytometry, cell surface staining of CHO transfectants.

Assay [2] deals with T2, Tim-3 on CHO-Tim-3 transfectants (UniProt Q8VIM0 20-281, limits assumed).
T2 construct: whole, on cells
Described as above.

Assay [3] deals with T3, Tim-1 on CHO-Tim-1 transfectants (CHO-K1 cells transfected with pEF6 containing murine Tim-1 cDNA) (murine, UniProt Q5QNS5 22-305).
T3 sequence: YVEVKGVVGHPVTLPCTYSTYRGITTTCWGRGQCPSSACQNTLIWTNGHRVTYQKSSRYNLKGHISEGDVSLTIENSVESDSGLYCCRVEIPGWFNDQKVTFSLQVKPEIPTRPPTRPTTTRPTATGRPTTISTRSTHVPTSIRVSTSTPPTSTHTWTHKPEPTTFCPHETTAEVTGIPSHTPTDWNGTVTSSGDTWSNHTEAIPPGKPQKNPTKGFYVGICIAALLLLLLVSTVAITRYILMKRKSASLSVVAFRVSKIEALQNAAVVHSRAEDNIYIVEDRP
The description is as above.

Assay [4] deals with T4, Tim-2 on CHO-Tim-2 transfectants (mouse, UniProt Q8R183 22-305).
T4 sequence: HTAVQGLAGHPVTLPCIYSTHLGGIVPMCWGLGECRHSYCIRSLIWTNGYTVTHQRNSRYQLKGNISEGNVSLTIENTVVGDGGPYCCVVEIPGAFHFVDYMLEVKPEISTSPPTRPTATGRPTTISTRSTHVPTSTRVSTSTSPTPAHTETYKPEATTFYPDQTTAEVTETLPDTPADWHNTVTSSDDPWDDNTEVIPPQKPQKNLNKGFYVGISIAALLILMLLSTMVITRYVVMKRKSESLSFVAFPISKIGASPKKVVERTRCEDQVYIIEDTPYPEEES
The assay is described as above.

In assay [5] the target is T1, Tim-4 on CHO or HEK293 transfectants …. Nature of the assay: flow cytometry, cell surface staining of CHO transfectants (FIG. 14A). On the technique in general: Flow cytometry measures light scatter and fluorescence of single cells or particles in a stream.

T2 sequence (Q8VIM0 20-281 limits assumed): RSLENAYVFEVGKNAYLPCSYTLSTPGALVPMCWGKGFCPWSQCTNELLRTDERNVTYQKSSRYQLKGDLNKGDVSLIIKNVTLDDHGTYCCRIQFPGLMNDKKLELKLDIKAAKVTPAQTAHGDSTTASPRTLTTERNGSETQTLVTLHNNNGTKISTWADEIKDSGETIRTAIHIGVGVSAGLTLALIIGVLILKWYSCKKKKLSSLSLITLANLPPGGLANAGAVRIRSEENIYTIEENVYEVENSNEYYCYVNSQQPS

B1: Tim-2-Ig (Tim-2 extracellular IgV and mucin domains fused to human IgG1 Fc tail) (Fc fusion)
chain: HTAVQGLAGHPVTLPCIYSTHLGGIVPMCWGLGECRHSYCIRSLIWTNGYTVTHQRNSRYQLKGNISEGNVSLTIENTVVGDGGPYCCVVEIPGAFHFVDYMLEVKPEISTSPPTRPTATGRPTTISTRSTHVPTSTRVSTSTSPTPAHTETYKPEATTFYPDQTTAEVTETLPDTPADWHNTVTSSDDPWDDNTEVIPPQKPQKNLNKG
notes: Only the extracellular IgV and mucin part stood in the assay; also called Tim2/Fc; not shown: human IgG1 Fc tail
As to B1, the binding result in assay [1], in assay [2], in assay [3] and in assay [4] was “no binding” in each case.

B2: Tim-1-Ig, full-length (Tim-1 extracellular IgV and mucin domains fused to human IgG1 Fc tail) (Fc fusion)
chain: YVEVKGVVGHPVTLPCTYSTYRGITTTCWGRGQCPSSACQNTLIWTNGHRVTYQKSSRYNLKGHISEGDVSLTIENSVESDSGLYCCRVEIPGWFNDQKVTFSLQVKPEIPTRPPTRPTTTRPTATGRPTTISTRSTHVPTSIRVSTSTPPTSTHTWTHKPEPTTFCPHETTAEVTGIPSHTPTDWNGTVTSSGDTWSNHTEAIPPGKPQKNPTKG
notes: Only the extracellular IgV and mucin part stood in the assay; also called Tim1/Fc; full-length Tim-1-Ig; not shown: human IgG1 Fc tail
Take B2: the binding result is “binds” in assay [5], “no binding” in assay [2], “no binding” in assay [3] and “no binding” in assay [4].

B3: Tim-4-Ig (soluble Ig fusion polypeptide: extracellular IgV and mucin domains of Tim-4 fused to a human IgG1 Fc tail) (Fc fusion)
chain: FLGQPVTLPCHYLSWSQSRNSMCWGKGSCPNSKCNAELLRTDGTRIISRKSTKYTLLGKVQFGEVSLTISNTNRGDSGVYCCRIEVPGWFNDVKKNVRLELRRATTTKKPTTTTRPTTTPYVTTTTPELLPTTVMTTSVLPTTTPPQTLATTAFSTAVTTCPSTTPGSFSQETTKGSAITTESETLPASNHSQRSMMTISTDIAVLRPTGSNPGILPSTSQLTTQKTTLTTSESLQKTTKSHQINSRQTIL
notes: Made by Chimerigen; also called tim-4:Ig fusion; not shown: human IgG1 Fc tail
Consider B3, for which the binding result in assay [1], in assay [2] and in assay [4] was “no binding” each time.

B4: Tim-1-Ig containing only the Tim-1 IgV domain (Fc fusion)
chain: SYVEVKGVVGHPVTLPCTYSTYRGITTTCWGRGQCPSSACQNTLIWTNGHRVTYQKSSRYNLKGHISEGDVSLTIENSVESDSGLYCCRVEIPGWFNDQKVTFSLQVKP
notes: also called Tim-1-Ig (IgV only); Tim-1-Ig fusion polypeptide (containing only the Tim-1 IgV domain); not shown: Ig Fc tail
On to B4, for which the binding result in assay [5] is “binds”.
